Source: paper PMC10545747 (2023)

B1: fluorescent labeled hcGAS (enzyme)
chain: MQPWHGKAMQRASEAGATAPKASARNARGAPMDPTESPAAPEAALPKAGKFGPARKSGSRQKKSAPDTQERPPVRATGARAKKAPQRAQDTQPSDATSAPGAEGLEPPAAREPALSRAGSCRQRGARCSTKPRPPPGPWDVPSPGLPVSAPILVRRDAAPGASKLRAVLEKLKLSRDDISTAAGMVKGVVDHLLLRLKCDSAFRGVGLLNTGSYYEHVKISAPNEFDVMFKLEVPRIQLEEYSNTRAYYFVKFKRNPKENPLSQFLEGEILSASKMLSKFRKIIKEEINDIKDTDVIMKRKRGGSPAVTLLISEKISVDITLALESKSSWPASTQEGLRIQNWLSAKVRKQLRLKPFYLVPKHAKEGNGFQEETWRLSFSHIEKEILNNHGKSKTCCENKEEKCCRKDCLKLMKYLLEQLKERFKDKKHLDKFSSYHVKTAFFHVCTQNPQDSQWDRKDLGLCFDNCVTYFLQCLRTEKLENYFIPEFNLFSSNLIDKRSKEFLTKQIEYERNNEFPVFDEF
modifications: fluorescent label (dye and site not stated)
B2: N-terminally truncated human cGAS (hcGAS-ΔN, residues 147–522) (domain or fragment)
chain: PVSAPILVRRDAAPGASKLRAVLEKLKLSRDDISTAAGMVKGVVDHLLLRLKCDSAFRGVGLLNTGSYYEHVKISAPNEFDVMFKLEVPRIQLEEYSNTRAYYFVKFKRNPKENPLSQFLEGEILSASKMLSKFRKIIKEEINDIKDTDVIMKRKRGGSPAVTLLISEKISVDITLALESKSSWPASTQEGLRIQNWLSAKVRKQLRLKPFYLVPKHAKEGNGFQEETWRLSFSHIEKEILNNHGKSKTCCENKEEKCCRKDCLKLMKYLLEQLKERFKDKKHLDKFSSYHVKTAFFHVCTQNPQDSQWDRKDLGLCFDNCVTYFLQCLRTEKLENYFIPEFNLFSSNLIDKRSKEFLTKQIEYERNNEFPVFDEF

Columns and labels:
XQ2 [1] = target: T1, XQ2 (macrocyclic (cyclic) peptide); test: MST; 2 M (NH4)2SO4
XQ2 [2] = target: T1, XQ2; test: SPR

| Binder | Kd (XQ2 [1]) | Kd (XQ2 [2]) |
| --- | --- | --- |
| B1 | 1.8 µM |  |
| B2 |  | 86.5 µM |
